Experimental data published in PMC3860265 (Journal of molecular biology, 2013).
Like-named read-outs stand apart in the source and are kept apart here. Each block holds one binder with its values, some of them ahead of it.

Legend:
Assay in all cases: kinase competition assay
CLK1 [1] = target: T1, CLK1 (mouse, UniProt P22518 1-483)
SRPK1 [2] = target: T2, SRPK1 (UniProt Q96SB4 1-655)
SRPK1 [3] = target: T2, SRPK1; remark: listed apart in the source
CLK1 [4] = target: T1, CLK1; remark: listed apart in the source
SRPK1 [5] = target: T2, SRPK1; remark: listed apart in the source
CLK1 [6] = target: T1, CLK1; remark: listed apart in the source
SRPK1 [7] = target: T2, SRPK1; remark: listed apart in the source

T1 sequence (P22518 whole entry): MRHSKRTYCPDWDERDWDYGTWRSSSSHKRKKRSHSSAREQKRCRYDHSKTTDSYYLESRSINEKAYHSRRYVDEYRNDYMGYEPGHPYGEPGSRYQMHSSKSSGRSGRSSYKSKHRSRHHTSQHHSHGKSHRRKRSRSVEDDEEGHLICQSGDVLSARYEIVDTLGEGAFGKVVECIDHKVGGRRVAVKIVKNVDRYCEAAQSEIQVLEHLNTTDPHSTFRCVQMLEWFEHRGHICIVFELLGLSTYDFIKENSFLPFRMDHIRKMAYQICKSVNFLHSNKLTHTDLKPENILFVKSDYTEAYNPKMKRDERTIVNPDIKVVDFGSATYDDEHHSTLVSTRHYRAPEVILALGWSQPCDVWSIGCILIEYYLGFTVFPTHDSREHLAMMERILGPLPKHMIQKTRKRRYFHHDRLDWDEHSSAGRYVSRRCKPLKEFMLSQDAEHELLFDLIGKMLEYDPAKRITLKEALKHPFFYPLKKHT
T2 sequence (Q96SB4 whole entry): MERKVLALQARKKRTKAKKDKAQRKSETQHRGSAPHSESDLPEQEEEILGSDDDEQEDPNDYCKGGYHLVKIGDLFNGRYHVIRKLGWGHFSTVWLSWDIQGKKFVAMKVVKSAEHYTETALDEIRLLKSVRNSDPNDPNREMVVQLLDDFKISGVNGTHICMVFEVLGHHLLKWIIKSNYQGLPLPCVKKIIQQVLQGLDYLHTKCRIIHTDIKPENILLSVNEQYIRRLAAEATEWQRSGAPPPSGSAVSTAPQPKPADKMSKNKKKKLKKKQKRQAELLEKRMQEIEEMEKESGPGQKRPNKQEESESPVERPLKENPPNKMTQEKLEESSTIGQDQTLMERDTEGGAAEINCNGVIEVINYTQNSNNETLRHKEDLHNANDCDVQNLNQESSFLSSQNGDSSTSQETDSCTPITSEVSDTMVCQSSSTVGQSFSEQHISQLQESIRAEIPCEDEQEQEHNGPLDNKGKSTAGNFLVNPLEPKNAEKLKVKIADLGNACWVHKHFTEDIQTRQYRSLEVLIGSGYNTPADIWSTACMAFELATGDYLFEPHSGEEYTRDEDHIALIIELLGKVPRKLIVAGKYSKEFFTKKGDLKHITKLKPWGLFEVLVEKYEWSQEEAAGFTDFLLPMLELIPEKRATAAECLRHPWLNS

Ki (CLK1 [1]): 290 ± 20 nM
appKI (CLK1 [1]): 440 ± 40 nM
Ki (SRPK1 [2]): 350 ± 200 nM
appKI (SRPK1 [2]): 520 ± 40 nM
Binder: AYIRVKVDGPRSPSYGRSRSRSRSRSRSRSRSN (domain or fragment, UniProt Q07955 188-220, looked up) [SR(188–220)]

Ki (CLK1 [1]): 240 ± 30 nM
appKI (CLK1 [1]): 370 ± 40 nM
Ki (SRPK1 [2]): 190 ± 30 nM
appKI (SRPK1 [2]): 280 ± 50 nM
Binder: AYIRVKVDGPRSPSYGRSRSRSRSRSRSRSRSNSRSRSYSP (domain or fragment, UniProt Q07955 188-228, looked up) [SR(188–228)]

Ki (SRPK1 [3]): 33 ± 3 nM
appKI (SRPK1 [3]): 80 ± 8 nM
Ki (CLK1 [4]): 130 ± 20 nM
appKI (CLK1 [4]): 440 ± 70 nM
B1: SR(P200,228,235A) (natural protein, UniProt Q07955 1-248, looked up)
chain: MSGGGVIRGPAGNNDCRIYVGNLPPDIRTKDIEDVFYKYGAIRDIDLKNRRGGPPFAFVEFEDPRDAEDAVYGRDGYDYDGYRLRVEFPRSGRGTGRGGGGGGGGGAPRGRYGPPSRRSENRVVVSGLPPSGSWQDLKDHMREAGDVCYADVYRDGTGVVEFVRKEDMTYAVRKLDNTKFRSHEGETAYIRVKVDGPRSASYGRSRSRSRSRSRSRSRSNSRSRSYSARRSRGSARYSPRHSRSRSRT

Ki (SRPK1 [5]): 300 ± 100 nM
Ki (CLK1 [6]): 130 ± 30 nM
B2: SR(ΔRRM2) (domain or fragment)
chain: MSGGGVIRGPAGNNDCRIYVGNLPPDIRTKDIEDVFYKYGAIRDIDLKNRRGGPPFAFVEFEDPRDAEDAVYGRDGYDYDGYRLRVEFPRSGRGTGRGGGGGGGGGAPRGRYGPPSRRSEGPRSPSYGRSRSRSRSRSRSRSRSNSRSRSYSPRRSRGSPRYSPRHSRSRSRT

Ki (CLK1 [1]): 120 ± 10 nM
appKI (CLK1 [1]): 180 ± 20 nM
Ki (SRPK1 [2]): 110 ± 7 nM
appKI (SRPK1 [2]): 170 ± 10 nM
Binder: AYIRVKVDGPRSPSYGRSRSRSRSRSRSRSRSNSRSRSYSPRRSRGSP (domain or fragment, UniProt Q07955 188-235, looked up) [SR(188–235)]

Ki (SRPK1 [7]): 2900 ± 500 nM
B3: SR(RRM2) (domain or fragment)
chain: NRVVVSGLPPSGSWQDLKDHMREAGDVCYADVYRDGTGVVEFVRKEDMTYAVRKLDNTKFRSHEGETAYIRVKVD

Ki (SRPK1 [7]): 170 ± 30 nM
B4: SR(RRM1-2) (domain or fragment)
chain: MSGGGVIRGPAGNNDCRIYVGNLPPDIRTKDIEDVFYKYGAIRDIDLKNRRGGPPFAFVEFEDPRDAEDAVYGRDGYDYDGYRLRVEFPRSGRGTGRGGGGGGGGGAPRGRYGPPSRRSENRVVVSGLPPSGSWQDLKDHMREAGDVCYADVYRDGTGVVEFVRKEDMTYAVRKLDNTKFRSHEGETAYIRVKVD
